Data reported in article PMC11153552, “Clock gene homologs lin-42 and kin-20 regulate circadian rhythms in C. elegans” (Scientific Reports, 2024).

Biological target: the molecule itself
Assay: crystal structure; hanging-drop vapor diffusion at 22 °C; LIN-42 41-315 at 4 mg/mL; reservoir 150 mM lithium sulfate, 1.5 M sodium potassium tartrate; molecular replacement with mouse PER2 PAS-B (PDB 3GDI)

B1: LIN-42 N-terminus residues 41-315 (domain or fragment, C. elegans)
chain: GAMDPEFNTWSSSSVEFLDDADDNRLLFTCTFTLPHGTVLSSATYADGFHEQYLTIGDNFLARLEPKGQSFILSAAAASVKQRIFARVTMPDGALRACELLCEFETDRAKITVLALRSAFSLQASHVSSNFHVFTFITKHSSTCALTHIDYASIPYLGLLPTDLIGKSLLAFVYSPDVHVVRQAHIDLHNSRGKIVKSIADLRLVAHNGSILRCQTEWSAYVNPWTRKMELVVARHRICSLPIGDSDVISSPPPGIQSNTLPPVMAKTFEDELRTIMNKPVP
notes: remnant left on the N-terminus of LIN-42 after TEV cleavage of the HisGβ1 tag; LIN-42 (PERIOD homolog), C. elegans, residues 41-315; Crystallised construct was 41-315; Density was poor for the putative N-terminal PAS domain (residues 41-146), so only the PAS-B dimer was modelled; also called protease-resistant core of the LIN-42 N-terminus; LIN-42 PAS-B dimer; source: E. coli Rosetta2 (DE3), …
binding result: binds
